T1: SASPase_28 (Homo sapiens, UniProt Q53RT3)
T1 construct: made in house
T1 sequence (Q53RT3 85-343): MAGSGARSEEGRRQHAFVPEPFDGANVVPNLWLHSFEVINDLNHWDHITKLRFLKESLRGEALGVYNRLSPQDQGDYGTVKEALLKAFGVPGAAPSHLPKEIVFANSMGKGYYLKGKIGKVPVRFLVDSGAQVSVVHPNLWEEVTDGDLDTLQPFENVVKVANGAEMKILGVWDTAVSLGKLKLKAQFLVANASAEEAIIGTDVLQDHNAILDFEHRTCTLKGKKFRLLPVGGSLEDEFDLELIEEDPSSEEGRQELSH

T2: filaggrin-2 (FLG2) (Homo sapiens, UniProt Q5D862)
T2 construct: expressed in transfected cells; host or cells: double-hybrid system
T2 sequence (Q5D862 2-213): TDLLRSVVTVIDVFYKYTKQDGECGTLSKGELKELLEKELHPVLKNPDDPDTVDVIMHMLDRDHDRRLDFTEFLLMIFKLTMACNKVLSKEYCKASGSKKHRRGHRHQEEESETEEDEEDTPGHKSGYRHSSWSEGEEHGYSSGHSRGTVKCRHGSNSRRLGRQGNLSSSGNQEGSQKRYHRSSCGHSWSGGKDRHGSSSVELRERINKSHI

T3: SASPase (Homo sapiens, UniProt Q53RT3)
T3 construct: expressed in transfected cells; host or cells: double-hybrid system
T3 sequence (Q53RT3 1-259 isoform Q53RT3-2): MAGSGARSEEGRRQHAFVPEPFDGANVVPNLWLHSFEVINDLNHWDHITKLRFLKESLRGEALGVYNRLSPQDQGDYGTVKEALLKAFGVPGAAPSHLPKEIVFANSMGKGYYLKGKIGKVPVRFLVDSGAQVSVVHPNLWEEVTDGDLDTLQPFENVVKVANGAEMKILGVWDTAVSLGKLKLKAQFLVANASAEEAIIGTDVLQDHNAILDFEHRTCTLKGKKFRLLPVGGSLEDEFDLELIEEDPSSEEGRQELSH


Legend:
SASPase_28 = biological target: T1, SASPase_28; experiment: SASPase proteolytic activity assay with Dabcyl-QIDRIMEK-Edans substrate; type: biochemical; conditions: for ability to increase the catalytic activity of SASPase: same enzymatic assay, FLG2-Hs replaced with the synthesized peptide
Protocol: A recombinant 28 kDa SASPase (SASPase_28) constituted of the amino acids extending from positions 85 to 343 of the sequence represented by the reference Q53RT3 (Uniprot/Swissprot Ref.) was prepared as described by Bernard et al., (J. Invest. Dermatol., 2005, 125: 278-287).
SASPase_28 at 0.025 mg/ml is in the presence of a colorimetric substrate, Dabcyl-QIDRIMEK-Edans, at 0.01 mM (Production Jerini Peptide Ref. D17: JPT Peptide Technologies GmbH) in a PBS buffer.
The hydrolysis of the colorimetric substrate by the activated SASPase results in the separation of the EDANS fluorochrome and of its deactivator (or quencher) Dabcyl, and in an increase in the EDANS fluorescence.
The fluorescent signal is measured at λex 340 nm/λem 490 nm. The fluorescence is read every 10 minutes for 1 h 30 min, at 37° C., with a SPECTRAMAX M5e (Molecular Devices).
The previous enzymatic assay was repeated with FLG2-Hs being replaced with each of the peptides thus prepared.

filaggrin-2 (FLG2) = biological target: T2, filaggrin-2 (FLG2); experiment: double-hybrid interaction of SASPase_28 fragments with filaggrin-2; type: binding; conditions: N-terminal fragment of SASPase_28, amino acids 11-86
Protocol: A first study using the “double-hybrid” technique was carried out using the whole 28 kDa SASPase protein in its wild-type form (SASPase_28, GENBANK Ref. gi16553767) and in its form mutated at the catalytic aspartic acid (SASPase_28D128A), and also the 37 kDa SASPase form (SASPase_37), in its whole form (GENBANK Ref. gi189409121), and a fragment corresponding to the N-terminal end of 84 amino acids of the protein relative to the sequence of SASPase_28 ([…]).
The SASPase sequences were fused to a DNA-binding domain, LexA, according to the orientation N-LexA-SASPase-C, so as to keep the C-terminal end of the SASPase free, with the exception of the SASPase_28N84 sequence which is fused to the LexA domain according to the orientation N-SASPase_28N84-LexA-C.
(§1) The prey sequences were fused to the Ga14 transcription-activating domain.
(§2) Supplementary experiments were carried out in order to reduce and identify the size of the sequences responsible for this interaction between SASPase_28 and filaggrin-2.

SASPase = biological target: T3, SASPase; experiment: double-hybrid interaction of filaggrin-2 fragments with SASPase; type: binding; conditions: N-terminal S100 domain of filaggrin-2, amino acids 2-95
Protocol: The interaction with a SASPase was found using, as bait, the filaggrin-2 fragment identified as interacting with the SASPase_28 and SASPase_37 sequences, and corresponding to amino acids 2-213 of the Genbank sequence: gi:62122916.
The sequence was fused to the DNA-binding domain, LexA, according to the orientation N-LexA-FLG22-213-C.
as §1, §2

| Molecule | ability to increase the catalytic activity of SASPase (SASPase_28) | further results |
| --- | --- | --- |
| SEQ ID NO: 10: peptide of 8 to 20 amino acids synthesized from positions 71 to 90 of FLG2, SEQ ID NO: 9 (FTEFLLMIFKLTMACNKVLS; /mol_type=“protein” /organism=“Homo sapiens”; listed as Homo sapiens) | particularly significant ability to increase |  |
| SEQ ID NO: 11: peptide of 8 to 20 amino acids synthesized from positions 71 to 90 of FLG2, SEQ ID NO: 9 (EFLLMIFKLTMACNK; /mol_type=“protein” /organism=“Homo sapiens”; listed as Homo sapiens) | particularly significant ability to increase |  |
| SEQ ID NO: 12: peptide of 8 to 20 amino acids synthesized from positions 71 to 90 of FLG2, SEQ ID NO: 9 (LMIFKLTMACNKVLS; /mol_type=“protein” /organism=“Homo sapiens”; listed as Homo sapiens) | particularly significant ability to increase |  |
| SEQ ID NO: 13: peptide of 8 to 20 amino acids synthesized from positions 71 to 90 of FLG2, SEQ ID NO: 9 (LMIFKLTMACNKV; /mol_type=“protein” /organism=“Homo sapiens”; listed as Homo sapiens) | particularly significant ability to increase |  |
| SEQ ID NO: 14: peptide of 8 to 20 amino acids synthesized from positions 71 to 90 of FLG2, SEQ ID NO: 9 (TEFLLMIFKLTMACNK; /mol_type=“protein” /organism=“Homo sapiens”; listed as Homo sapiens) | particularly significant ability to increase |  |
| SEQ ID NO: 15: peptide of 8 to 20 amino acids synthesized from positions 71 to 90 of FLG2, SEQ ID NO: 9 (TEFLLMIF; /mol_type=“protein” /organism=“Homo sapiens”; listed as Homo sapiens) | particularly significant ability to increase |  |
| SEQ ID NO: 16: amino acid sequence extending from positions 97 to 173 of the Q53RT3 sequence of SASPase (protein, listed as Homo sapiens, /mol_type=“protein” /organism=“Homo sapiens”) RQHAFVPEPFDGANVVPNLWLHSFEVINDLNHWDHITKLRFLKESLRGEALGVYNRLSPQDQGDYGTVKEALLKAFG |  | interaction with FLG2 (filaggrin-2 (FLG2)): sufficient for the interaction with FLG2 |
| SEQ ID NO: 9: amino acid sequence extending from positions 2 to 95 of filaggrin-2 Q5D862 (N-terminal S100 domain) (protein, listed as Homo sapiens, /mol_type=“protein” /organism=“Homo sapiens”) TDLLRSVVTVIDVFYKYTKQDGECGTLSKGELKELLEKELHPVLKNPDDPDTVDVIMHMLDRDHDRRLDFTEFLLMIFKLTMACNKVLSKEYCKA |  | interaction with SASPase (SASPase): involved in the interaction with SASPase |
| FLG2-Hs: recombinant filaggrin-2, positions 2 to 213 of Q5D862, fused to a Thioredoxin-His-S.Tag affinity label (protein, left off: large carriers) TDLLRSVVTVIDVFYKYTKQDGECGTLSKGELKELLEKELHPVLKNPDDPDTVDVIMHMLDRDHDRRLDFTEFLLMIFKLTMACNKVLSKEYCKASGSKKHRRGHRHQEEESETEEDEEDTPGHKSGYRHSSWSEGEEHGYSSGHSRGTVKCRHGSNSRRLGRQGNLSSSGNQEGSQKRYHRSSCGHSWSGGKDRHGSSSVELRERINKSHI |  | enzymatic activity of SASPase (SASPase_28; SASPase_28 0.025 mg/ml, substrate 0.01 mM, PBS, 37° C., FLG2-Hs at 0.01 to 10 times the SASPase concentration): significantly increased |
